Assay results reported in publication PMC5324736.
Where two headings read alike, the source gives them in different places.

Legend:
[1] = target: eIF2•GDPNP•Met-tRNAi ternary complex; assay: native gel or EMSA
[2] = target: eIF2•GDPNP•Met-tRNAi ternary complex; assay: native gel or EMSA; remark: listed apart in the source

Substance | Kd [1] [µM] | Kd [2] [µM]
40S ribosomal subunit, anion exchange column preparation (complex) | < 0.001 | 0.014
40S ribosomal subunit, sucrose cushion preparation (complex) | < 0.001 | 0.013
